Consider 2 molecules from US20250312468A1, “ANTI-PROTAC ANTIBODIES AND COMPLEXES” (Merck Patent GmbH, priority 2021, published 2025).

For one assay, the system named is HEPG2 cells. In words: CellTiter-Glo cell viability assay (VHH-based PAX). The note with it: cetuximab-based construct, GNE987 (1:1). On the procedure:
(§1) Several cell viability experiments were performed following the procedure described below: Cells were seeded in different media into white cell culture-treated flat and clear bottom multiwell plates followed by overnight incubation in a humid chamber at 37° C. and 5% CO2. Complexation was performed as described in chapter 7.4.
(§2) The solutions were added to the cells based on the antibody concentration using nanodrop dispension using a Tecan D300e Digital Dispenser and all wells were normalized to the same volume using 0.3% TW20 in PBS pH 7.4 and DMSO to a final solvent concentration of 0.05% DMSO and 0.003% TW20. Incubation was performed at 37° C. at 5% or 10% CO2 dependent on the medium. The assay was developed after 3 days if not otherwise stated using CellTiter-Glo Luminescent Cell Viability Assay as described in the manufacturer's protocol. In brief, the plates were equilibrated to room temperature for 30 minutes. 100 mL CellTiter-Glo Buffer were added to the CellTiter-Glo Substrate Flask and mixed well. 30 μL of the reagent was transferred to each well. After incubation for 3 minutes at room temperature while shaking at 550 rpm, the plate was incubated for another 10 minutes at room temperature. The luminescence was read on an Envision reader from Perkin Elmer. Solvent alone and Bortezomib (1.0E-05 M) served as high control (100% viability) and low control (0% viability), respectively. Raw data were converted into percent cell viability relative to the high and low control, which were set to 100% and 0%, respectively. […] The concentration corresponds to the concentration of PROTACs in the PAX.
In general terms: ATP-based viability assays read luminescence as a measure of living cells.

The subject of another assay is MDAMB468 cells. In words: CellTiter-Glo cell viability assay (VHH-based PAX). The note with it: gemtuzumab-based vs cetuximab-based construct, GNE987 (1:1). On the procedure: as §1, §2

B1: MIC7: anti-PROTAC VHH clone, SEQ ID NO: 20 (protein)
VHH: AVQLVESGGGLVQAGGSLRLSCAASGFSFDDYALGWFRQAPGKEPEGLSCISSSDGSTWYADSVKGRFTISSDNAKNTVYLQMNSLKPEDTAVYYCSAIYRLSCSVVRPTIRYALDYWGQGTQVTVSS
modifications: new world camelid
Turning to B1, the “Selectivity Index IC50 of C on HEPG2/MDAMB468” value in the assay with HEPG2 cells came to 565.3. The “Selectivity Index IC5O(G)/IC50(C)” value in the assay with MDAMB468 cells came to 20.9.

B2: MIC5: anti-PROTAC VHH clone, SEQ ID NO: 24 (protein)
VHH: AVQLVDSGGGLVQAGGSLRLSCAASGFTFDDYAIGWFRQAPGKEPEGILCISSSDGSAYVRDSVKGRFTMSSDNAKNTMYLQMNSLRTEDTAVYHCAVATGSCPADGGQKIFLEVWGQGTQVTVSS
modifications: new world camelid
On to B2, for which the “Selectivity Index IC5O(G)/IC50(C)” value in the assay on MDAMB468 cells was found to be 98.1.
